Substitutions are numbered along the chain they refer to.
Tests used:
[1] = molecular target: T1, extracellular domain of cynomolgus CD47 (CyCD47 ECD) (cynomolgus); assay: ELISA
T1 chain: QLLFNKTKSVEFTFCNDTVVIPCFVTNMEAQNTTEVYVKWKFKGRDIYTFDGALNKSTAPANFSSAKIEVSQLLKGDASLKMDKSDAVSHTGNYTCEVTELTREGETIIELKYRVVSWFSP

[2] = molecular target: T2, extracellular domain of human CD47 (HuCD47 ECD) (human, UniProt Q08722); assay: ELISA; plates coated with 1 ug/ml HuCD47 ECD or CyCD47 ECD in 0.1 M PBS; serially diluted antibodies, 37 °C, 2 h; bound antibody detected with anti-human Fc HRP; conditions: both partners purified
T2 construct: human CD47 extracellular domain, amino acids Gln1-Pro121; source: bought: Acro Biosystems; not shown: His6, C-terminal, kept

[3] = molecular target: T3, extracellular domain of cynomolgus CD47 (CyCD47 ECD) (Macaca fascicularis, UniProt A0A2K5X4I2); assay: BLI; Octet Red96; 5 ug/ml antibody held on anti-human IgG-Fc biosensors; 2-fold dilutions of HuCD47 ECD or CyCD47 ECD in 1 x PBS, 0.1% BSA, 0.02% Tween-20; 1:1 Langmuir global fit; apparent Kd; conditions: both partners purified
T3 construct: cynomolgus CD47 extracellular domain; source: bought: Acro Biosystems

[4] = molecular target: T2, extracellular domain of human CD47 …; assay: as above; conditions: both partners purified

T3 sequence (A0A2K5X4I2 entry or part of it): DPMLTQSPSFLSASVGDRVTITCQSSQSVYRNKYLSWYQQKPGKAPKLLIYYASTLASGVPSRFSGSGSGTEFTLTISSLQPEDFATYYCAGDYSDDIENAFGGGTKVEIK

B1: Hu5F9-G4, humanized mouse anti-human CD47 antibody (antibody, V domains shown)
VH: QVQLVQSGAEVKKPGASVKVSCKASGYTFTNYNMHWVRQAPGQRLEWMGTIYPGNDDTSYNQKFKDRVTITADTSASTAYMELSSLRSEDTAVYYCARGGYRAMDYWGQGTLVTVSS
VL: DIVMTQSPLSLPVTPGEPASISCRSSQSIVYSNGNTYLGWYLQKPGQSPQLLIYKVSNRFSGVPDRFSGSGSGTDFTLKISRVEAEDVGVYYCFQGSHVPYTFGQGTKLEIK
Question: Which EC50 [1] does the source give for B1 here?
Answer: Its EC50 is 0.04 µg/mL.

B2: H3L2, humanized variant of 1C8 (antibody, V domains shown)
VH: QSVKESGGGLFQPGGSLRLSCSVSGFSLSSYAISWVRQAPGKGLEYIGYISSIGDPYYADWVKGRFTISRDSSTVYLQMTSLRAEDTAVYFCARSYPGNGDLGRLDIWGQGTTVTVSS
VL: DPQLTQSPSFVSASVGDRVTITCRSSQSVYRNKYLSWYQQKPGKAPKLLIYYASTLASGVPSRFSGSGSGTEFTLTISSVQPEDAATYYCAGDYSDDIENAFGQGTKVEIK
Question: Does B2 bind [2]?
Answer: Result: binds

B3: H4L2, humanized variant of 1C8 (antibody, V domains shown)
VH: QSVKESGGGLFQPGGSLRLSCSVSGFSLSSYAISWVRQAPGKGLEYIGYISSIGDPYYADWVKGRFTISRDNSKNTVYLQMTSLRAEDTAVYFCARSYPGNGDLGRLDIWGQGTTVTVSS
VL: B2 VL
Question: Does B3 bind [2]?
Answer: Result: binds

B4: H4L3, humanized variant of 1C8 (antibody, V domains shown)
VH: B3 VH
VL: B2 VL with Q3M, V11L, R24Q, V80L, A85F, Q104G
Question: What does the source list for B4?
Answer: binding result [3]: binds; fold lower binding affinity than 1C8 [4]: 3 fold

Source: publication PMC12302720 (The Journal of Biological Chemistry, 2025)
